Our source for the activity values is US20250092426, “CAS ENDONUCLEASES AND RELATED METHODS” (Flagship Pioneering Innovations VII, LLC, published 2025).

The target in the data set is T1, CasEnd-20 (synthetic construct).
T1 chain: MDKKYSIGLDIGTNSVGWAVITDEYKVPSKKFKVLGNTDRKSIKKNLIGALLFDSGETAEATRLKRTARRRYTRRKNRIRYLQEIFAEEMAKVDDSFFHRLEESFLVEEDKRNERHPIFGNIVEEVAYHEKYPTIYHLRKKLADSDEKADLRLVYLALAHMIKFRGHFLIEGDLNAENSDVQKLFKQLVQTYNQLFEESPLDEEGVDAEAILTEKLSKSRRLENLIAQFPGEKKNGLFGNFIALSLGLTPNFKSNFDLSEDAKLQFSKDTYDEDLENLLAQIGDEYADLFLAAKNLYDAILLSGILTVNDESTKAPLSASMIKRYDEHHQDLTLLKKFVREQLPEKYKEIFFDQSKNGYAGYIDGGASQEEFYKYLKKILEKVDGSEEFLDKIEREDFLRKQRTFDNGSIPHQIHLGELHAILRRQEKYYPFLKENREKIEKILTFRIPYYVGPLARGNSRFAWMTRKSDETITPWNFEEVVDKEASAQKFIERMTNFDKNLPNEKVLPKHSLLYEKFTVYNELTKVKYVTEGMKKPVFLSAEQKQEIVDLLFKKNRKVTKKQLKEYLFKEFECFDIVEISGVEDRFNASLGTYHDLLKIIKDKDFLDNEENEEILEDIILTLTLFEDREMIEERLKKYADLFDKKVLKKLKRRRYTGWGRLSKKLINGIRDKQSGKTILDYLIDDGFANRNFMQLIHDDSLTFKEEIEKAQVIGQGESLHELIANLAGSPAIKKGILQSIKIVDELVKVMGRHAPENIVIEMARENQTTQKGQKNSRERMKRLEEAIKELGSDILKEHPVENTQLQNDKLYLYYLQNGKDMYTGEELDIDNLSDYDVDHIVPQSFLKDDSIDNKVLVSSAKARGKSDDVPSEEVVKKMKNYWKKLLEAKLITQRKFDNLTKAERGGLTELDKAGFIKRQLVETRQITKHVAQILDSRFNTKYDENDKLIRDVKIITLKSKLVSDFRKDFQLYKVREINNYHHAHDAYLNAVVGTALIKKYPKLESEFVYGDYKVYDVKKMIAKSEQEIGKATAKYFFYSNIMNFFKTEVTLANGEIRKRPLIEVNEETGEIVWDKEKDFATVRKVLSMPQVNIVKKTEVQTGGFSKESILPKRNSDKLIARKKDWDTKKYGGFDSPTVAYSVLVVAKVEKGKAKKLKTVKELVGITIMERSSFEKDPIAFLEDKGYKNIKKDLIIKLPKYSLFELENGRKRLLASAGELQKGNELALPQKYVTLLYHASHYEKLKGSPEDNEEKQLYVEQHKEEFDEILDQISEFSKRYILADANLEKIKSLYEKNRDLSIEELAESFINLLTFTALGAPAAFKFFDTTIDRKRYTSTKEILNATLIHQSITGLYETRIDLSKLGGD
In words: cell_activity; +++; K562, second nick guide SEQ 380; PAM not stated. The gist of the method:
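K562 cells (250,000) nucleofected with plasmids for the reverse transcriptase–Cas endonuclease fusion, template RNA introducing an SNP at endogenous HBB, and second nick guide RNA (250 ng each). Genomic DNA harvested at day 3; percent amplicons with intended edit measured by targeted amplicon sequencing.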

B1: HBB template RNA ; HBB protospacer (ssRNA ; dsDNA)
RNA: CAUGGUGCACCUGACUCCUGGUUUUAGAGCUAGAAAUAGCAAGUUAAAAUAAGGCUAGUCCGUUAUCAACUUGAAAAAGUGGCACCGAGUCGGUGCACGGCAGACUUCUCUGCCGGAGUCAGGUGC
DNA 1: CATGGTGCACCTGACTCCTG
DNA 2: CAGGAGTCAGGTGCACCATG
B1: the activity is ≥ 100 % of reference.
